Results as given in article PMC2034464 (Nucleic Acids Research, 2007).

Key:
[1] = molecular target: T1, MutSα (MSH2/MSH6 heterodimer) (human, UniProt P43246 1-934; P52701 1-1360); assay: ELISA
[2] = molecular target: T2, MutSβ (MSH2/MSH3 heterodimer) (human, UniProt P43246 1-934; P20585 1-1137); assay: ELISA
[3] = molecular target: T3, MutLα (MLH1/PMS2 heterodimer) (human, UniProt P40692 1-756; P54278 1-862); assay: ELISA
[4] = molecular target: T2, MutSβ (MSH2/MSH3 heterodimer); assay: pull-down
[5] = molecular target: T1, MutSα (MSH2/MSH6 heterodimer); assay: pull-down
[6] = molecular target: T3, MutLα (MLH1/PMS2 heterodimer); assay: pull-down

T2 sequence (P43246 whole entry, chain 1 of 2): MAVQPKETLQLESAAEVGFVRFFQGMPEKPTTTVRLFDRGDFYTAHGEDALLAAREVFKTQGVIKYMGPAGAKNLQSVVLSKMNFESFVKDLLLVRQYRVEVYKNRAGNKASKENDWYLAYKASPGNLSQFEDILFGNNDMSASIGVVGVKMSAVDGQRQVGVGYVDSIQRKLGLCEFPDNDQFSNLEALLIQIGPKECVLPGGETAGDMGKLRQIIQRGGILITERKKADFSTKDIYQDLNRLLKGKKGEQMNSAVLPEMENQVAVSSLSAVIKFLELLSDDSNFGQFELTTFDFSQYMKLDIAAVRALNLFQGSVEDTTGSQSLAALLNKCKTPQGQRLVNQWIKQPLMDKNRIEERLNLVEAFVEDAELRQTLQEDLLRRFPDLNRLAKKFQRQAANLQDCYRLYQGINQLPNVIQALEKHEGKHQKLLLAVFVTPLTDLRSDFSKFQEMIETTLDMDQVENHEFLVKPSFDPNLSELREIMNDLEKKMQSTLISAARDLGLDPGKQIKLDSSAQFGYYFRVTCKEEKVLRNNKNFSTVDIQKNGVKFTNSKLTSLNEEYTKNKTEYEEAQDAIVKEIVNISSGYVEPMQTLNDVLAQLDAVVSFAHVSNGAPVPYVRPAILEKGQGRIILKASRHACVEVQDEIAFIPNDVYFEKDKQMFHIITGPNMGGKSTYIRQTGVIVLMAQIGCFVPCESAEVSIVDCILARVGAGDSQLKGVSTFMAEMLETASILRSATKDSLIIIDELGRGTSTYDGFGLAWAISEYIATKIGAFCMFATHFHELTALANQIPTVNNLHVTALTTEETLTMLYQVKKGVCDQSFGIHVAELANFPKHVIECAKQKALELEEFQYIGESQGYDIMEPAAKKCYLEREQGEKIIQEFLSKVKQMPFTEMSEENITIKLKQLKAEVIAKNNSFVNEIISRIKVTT
T2 sequence (P20585 whole entry, chain 2 of 2): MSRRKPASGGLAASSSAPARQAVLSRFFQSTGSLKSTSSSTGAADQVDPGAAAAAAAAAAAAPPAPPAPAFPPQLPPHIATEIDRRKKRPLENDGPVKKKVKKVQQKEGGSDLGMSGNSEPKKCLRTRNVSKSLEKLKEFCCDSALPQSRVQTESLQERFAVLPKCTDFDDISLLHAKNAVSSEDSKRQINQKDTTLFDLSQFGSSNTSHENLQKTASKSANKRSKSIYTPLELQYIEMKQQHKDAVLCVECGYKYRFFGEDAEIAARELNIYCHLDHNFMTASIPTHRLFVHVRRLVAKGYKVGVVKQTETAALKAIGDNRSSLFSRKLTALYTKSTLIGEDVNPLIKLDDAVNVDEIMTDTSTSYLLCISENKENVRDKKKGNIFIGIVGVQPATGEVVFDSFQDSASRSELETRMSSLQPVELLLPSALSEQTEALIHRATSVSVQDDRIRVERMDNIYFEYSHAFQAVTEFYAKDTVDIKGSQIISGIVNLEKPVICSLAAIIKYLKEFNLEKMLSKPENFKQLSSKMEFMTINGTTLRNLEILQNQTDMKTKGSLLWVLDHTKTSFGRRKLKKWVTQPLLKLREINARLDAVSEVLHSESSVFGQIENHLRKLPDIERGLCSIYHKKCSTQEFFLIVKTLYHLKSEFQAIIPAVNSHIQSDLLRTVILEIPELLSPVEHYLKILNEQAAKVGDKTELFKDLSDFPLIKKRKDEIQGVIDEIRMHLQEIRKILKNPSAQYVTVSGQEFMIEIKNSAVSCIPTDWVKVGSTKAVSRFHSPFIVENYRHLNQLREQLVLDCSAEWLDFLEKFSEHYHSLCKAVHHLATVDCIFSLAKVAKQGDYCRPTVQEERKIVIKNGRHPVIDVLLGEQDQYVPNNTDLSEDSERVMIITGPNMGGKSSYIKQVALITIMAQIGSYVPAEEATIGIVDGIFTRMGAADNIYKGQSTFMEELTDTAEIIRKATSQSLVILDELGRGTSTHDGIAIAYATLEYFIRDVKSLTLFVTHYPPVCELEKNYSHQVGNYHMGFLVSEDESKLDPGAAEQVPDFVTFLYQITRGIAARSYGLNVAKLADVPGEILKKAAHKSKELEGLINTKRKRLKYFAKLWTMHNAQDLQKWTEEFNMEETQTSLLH
T3 sequence (P40692 whole entry, chain 1 of 2): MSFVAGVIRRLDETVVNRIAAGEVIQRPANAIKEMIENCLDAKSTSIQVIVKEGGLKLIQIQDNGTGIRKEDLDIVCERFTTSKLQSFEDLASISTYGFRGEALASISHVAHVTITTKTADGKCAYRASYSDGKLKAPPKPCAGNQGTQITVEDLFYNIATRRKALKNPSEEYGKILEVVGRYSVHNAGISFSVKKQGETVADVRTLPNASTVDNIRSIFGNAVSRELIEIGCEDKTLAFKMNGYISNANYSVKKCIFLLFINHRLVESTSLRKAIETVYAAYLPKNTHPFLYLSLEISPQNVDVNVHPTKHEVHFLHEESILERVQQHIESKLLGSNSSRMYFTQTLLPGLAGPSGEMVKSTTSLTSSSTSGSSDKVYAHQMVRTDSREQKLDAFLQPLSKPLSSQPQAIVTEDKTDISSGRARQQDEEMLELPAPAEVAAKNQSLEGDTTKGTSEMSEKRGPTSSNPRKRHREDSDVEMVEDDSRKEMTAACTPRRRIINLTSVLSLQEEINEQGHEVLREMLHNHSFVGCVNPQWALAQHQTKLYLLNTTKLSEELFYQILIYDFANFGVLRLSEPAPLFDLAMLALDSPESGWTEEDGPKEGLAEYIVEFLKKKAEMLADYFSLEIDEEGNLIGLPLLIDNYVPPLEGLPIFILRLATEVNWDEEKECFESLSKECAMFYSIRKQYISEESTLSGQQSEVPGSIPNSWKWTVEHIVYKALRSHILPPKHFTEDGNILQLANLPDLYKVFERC
T3 sequence (P54278 whole entry, chain 2 of 2): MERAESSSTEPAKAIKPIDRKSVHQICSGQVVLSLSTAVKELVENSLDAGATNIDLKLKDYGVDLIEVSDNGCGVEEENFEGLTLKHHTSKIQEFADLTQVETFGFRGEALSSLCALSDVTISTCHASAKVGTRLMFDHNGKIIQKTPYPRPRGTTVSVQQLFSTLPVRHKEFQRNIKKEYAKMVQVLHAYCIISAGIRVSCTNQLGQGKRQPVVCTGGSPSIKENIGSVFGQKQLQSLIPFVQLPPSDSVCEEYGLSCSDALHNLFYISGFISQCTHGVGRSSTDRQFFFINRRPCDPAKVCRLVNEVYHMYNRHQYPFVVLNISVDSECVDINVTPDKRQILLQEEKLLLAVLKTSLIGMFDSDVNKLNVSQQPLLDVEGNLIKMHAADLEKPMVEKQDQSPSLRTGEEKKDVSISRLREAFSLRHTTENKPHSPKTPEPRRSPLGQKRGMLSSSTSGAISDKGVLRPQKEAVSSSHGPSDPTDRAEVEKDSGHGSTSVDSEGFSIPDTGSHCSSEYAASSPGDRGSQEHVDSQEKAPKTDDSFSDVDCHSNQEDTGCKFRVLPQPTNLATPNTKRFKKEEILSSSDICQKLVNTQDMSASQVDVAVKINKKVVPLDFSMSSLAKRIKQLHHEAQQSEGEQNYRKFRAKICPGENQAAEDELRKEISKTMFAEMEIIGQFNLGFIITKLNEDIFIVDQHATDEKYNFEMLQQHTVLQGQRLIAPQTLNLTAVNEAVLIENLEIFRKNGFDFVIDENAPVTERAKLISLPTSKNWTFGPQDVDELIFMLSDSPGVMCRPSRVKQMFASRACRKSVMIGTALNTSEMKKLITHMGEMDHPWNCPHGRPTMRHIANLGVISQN

binding result [4] | binding result [6] | Binder | further results
– | – | Recombinant human WRN (Werner syndrome helicase) (natural protein) not shown | Kd [1]: 38.5 nM; Kd [2]: 8.8 nM; Kd [3]: 34.9 nM
binds | – | GST-WRN fragment 949–1432 (domain or fragment, human, UniProt Q14191 949-1432, looked up) MDDSEDTSWDFGPQAFKLLSAVDILGEKFGIGLPILFLRGSNSQRLADQYRRHSLFGTGKDQTESWWKAFSRQLITEGFLVEVSRYNKFMKICALTKKGRNWLHKANTESQSLILQANEELCPKKLLLPSSKTVSSGTKEHCYNQVPVELSTEKKSNLEKLYSYKPCDKISSGSNISKKSIMVQSPEKAYSSSQPVISAQEQETQIVLYGKLVEARQKHANKMDVPPAILATNKILVDMAKMRPTTVENVKRIDGVSEGKAAMLAPLLEVIKHFCQTNSVQTDLFSSTKPQEEQKTSLVAKNKICTLSQSMAITYSLFQEKKMPLKSIAESRILPLMTIGMHLSQAVKAGCPLDLERAGLTPEVQKIIADVIRNPPVNSDMSKISLIRMLVPENIDTYLIHMAIEILKHGPDSGLQPSCDVNKRRCFPGSEEICSSSKRSKEEVGINTETSSAERKRRLPVWFAKGSDTSKKLMDKTKRGGLFS | –
binds | – | GST-WRN fragment 500–1149 (domain or fragment) not shown | –
binds | binds | GST-WRN fragment 500–946 (domain or fragment) not shown | binding result [5]: binds
– | binds | GST-WRN fragment 51–449 (domain or fragment, human, UniProt Q14191 51-449, looked up) GSIVYSYDASDCSFLSEDISMSLSDGDVVGFDMEWPPLYNRGKLGKVALIQLCVSESKCYLFHVSSMSVFPQGLKMLLENKAVKKAGVGIEGDQWKLLRDFDIKLKNFVELTDVANKKLKCTETWSLNSLVKHLLGKQLLKDKSIRCSNWSKFPLTEDQKLYAATDAYAGFIIYRNLEILDDTVQRFAINKEEEILLSDMNKQLTSISEEVMDLAKHLPHAFSKLENPRRVSILLKDISENLYSLRRMIIGSTNIETELRPSNNLNLLSFEDSTTGGVQQKQIREHEVLIHVEDETWDPTLDHLAKHDGEDVLGNKVERKEDGFEDGVEDNKLKENMERACLMSLDITEHELQILEQQSQEEYLSDIAYKSTEHLSPNDNENDTSYVIESDEDLEMEML | –
